Assay results reported in the nanobody polyreactivity screen of Harvey et al. (2022).

Assay: yeast display, Sf9 membrane polyspecificity reagent, FACS + sequencing; frameworks hold sequencing errors
Method in brief: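 After 36–48 hours of galactose induction, yeast (Saccharomyces cerevisiae BJ5465) displaying a synthetic nanobody library were stained at 4 °C for 1 hour with 10% biotinylated, detergent-solubilized Sf9 membrane reagent. Streptavidin microbeads enriched the stained cells before FACS sorting into low and high (top ~1%) gates on anti-HA and streptavidin fluorescence. Each clone's polyreactivity label reflects its gate of origin.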

Sequence: QVQLVESGGGLVQAGGSLRLSCAASGLTFVKNAMGWNRQAPGKERELVAAITVSGSRTYYADSVKGRFTISRDNAKNTVYLQMNSLKPEDTGVYYCNAYPYYLVRNMDSWGQGTLVTVSS
- polyreactivity (PSR sort gate): high polyreactivity

Sequence: QVQLVESGGGLVQAGGSLRLSCAASGLTFVKNAMGWYRQAPGKERELVATISSGGSTNYADSVKGRFTISRDNAKNTVYLQMNSLKPEDTAVYYCNKDYTGVLLWIWWDRYDYWGQATQVTVSS
- polyreactivity (PSR sort gate): high polyreactivity

Sequence: QVQLVESGGGLVQAGGSLRLSCAASGLTFVQNAMGWYRQAPGKERELVAAISSRGGSTYYADSVKGRFTISRDNAKNTVYLQMNSLKPEETAVYYCNTRSITKYDYWRRGYGYWGQGTQVTVSS
- polyreactivity (PSR sort gate): high polyreactivity

Sequence: QVQLVESGGGLVQAGGSLRLSCAASGLTFVTNAMGWYRQAPGKERELVAGISWSDGSTYYADSVKGRFTISRDNAKNTVYLQMNSVKPEDSAVYYCNAGVDLHYGYITYGVYGYDYWGQGTQVTVSS
- polyreactivity (PSR sort gate): low polyreactivity

Sequence: QVQLVESGGGLVQAGGSLRLSCAASGLTFVWYAMGWYRQAPGKDRELVAAITLSGGSTYYADSGKGRFTISRDNAKNTVYLQMNSLIPEDTAVYYCAADGTYRPEDYDYWGQGTQVTVSS
- polyreactivity (PSR sort gate): low polyreactivity

Sequence: QVQLVESGGGLVQAGGSLRLSCAASGLTFVYNNMGWYRQAPGKERELVAAINWSGGRTYYADSVKGRFTISRDNAKNTVYLQMNSLKPEDTAVYYCAALYVPNTPTYKYDYWGQGTQVTVSS
- polyreactivity (PSR sort gate): low polyreactivity

Sequence: QVQLVESGGGLVQAGGSLRLSCAASGLTFVYYAMGWYRQAPGKERELLAAISRSGGSTYYADSVKGRFTISRDNAKNTVYLQMNSLKPEDTAVYYCAAEATKWFGVVTMDYWGQGTQVTVSS
- polyreactivity (PSR sort gate): high polyreactivity

Sequence: QVQLVESGGGLVQAGGSLRLSCAASGLTFVYYAMGWYRQAPGKERELVASITRGGSTNYADSVKGRFTISRDNAKNTVYLQMTSLKPEDTAVYYCAAGYGGWAWIHVSYGGDYWGQGTQVSVSS
- polyreactivity (PSR sort gate): low polyreactivity

Sequence: QVQLVESGGGLVQAGGSLRLSCAASGLTFWANTMGWYRQAPGKERELVAAITWSGGSTYYADSVKGRFTISRDNAKNTVNLQMNSLKPEDTAVYYCAADEYFAAGYSYYYWGQGSQVTVSS
- polyreactivity (PSR sort gate): low polyreactivity

Sequence: QVQLVESGGGLVQAGGSLRLSCAASGLTFWDYAMGWYRQAPGKETELVAAISNDDSTYADSVKGRFTISRDNAKNTVYLQMNSLKPEDTAVYYCAAQSYYTWPEMGYWGQGTQVTVSS
- polyreactivity (PSR sort gate): low polyreactivity

Sequence: QVQLVESGGGLVQAGGSLRLSCAASGLTFWKYTMGWYRQAPGKERELVAAISISGTNTYYADSVKGRFTISRDNAKNTVYLQMNSLKPEDTAVYYCAAVRGYPPTNYYYWGQGTQVSVSS
- polyreactivity (PSR sort gate): high polyreactivity

Sequence: QVQLVESGGGLVQAGGSLRLSCAASGLTFWKYTMGWYRQAPGKERELVAAISISGTNTYYADSVKGRFTISRDNAKNTVYLQMNSLKPEDTAVYYCAAVRGYPPTNYYYWGQGTQVTVSS
- polyreactivity (PSR sort gate): high polyreactivity

Sequence: QVQLVESGGGLVQAGGSLRLSCAASGLTFWVYTMGWYRQAPGKERELVARITSRGASTYYADSVKGRFTISRDNAKNTVYLQMNSLKPEDTAVYYCATDRYRIYPDYDYWGQGTQVTVSS
- polyreactivity (PSR sort gate): high polyreactivity

Sequence: QVQLVESGGGLVQAGGSLRLSCAASGLTFWYYAMGWYRQAPGKERELVAAISWSGGRTSYADSVKGRFTISRDNAKNTVYLQMNSLKPEDTAVYYCAADKDFRTGEFEYDYWGQGTQLTVSS
- polyreactivity (PSR sort gate): high polyreactivity

Sequence: QVQLVESGGGLVQAGGSLRLSCAASGLTFYFYAMGWYIQAPGKERELVAAIDWGGGSTYYADSVKGRFTISRDYAKNTVYLQMNSLKPEDTAVYYCAARGYYYNYDVNYWGQGTQVTVSS
- polyreactivity (PSR sort gate): low polyreactivity

Sequence: QVQLVESGGGLVQAGGSLRLSCAASGLTFYFYAMGWYRQAPGKERELVAAIDWGGGSTYYADSVKGRFTISRDNAKNTVYLQMNSLKPEDTAVYYCAARGYYYNYDVNYWGQGTQVTVSS
- polyreactivity (PSR sort gate): low polyreactivity

Sequence: QVQLVESGGGLVQAGGSLRLSCAASGLTFYGNAMGWYRQAPGKERELVAAISSSGGTTYYADSVKGRFTISRDNAKNTVYLQMNSLKPEDTAVYYYWGQGTQVTVSS
- polyreactivity (PSR sort gate): low polyreactivity

Sequence: QVQLVESGGGLVQAGGSLRLSCAASGLTFYGNAMGWYRQAPGKERELVAAISSSGGTTYYADSVKGRFTISRDNEKNTVYLQMNSLKPEDTAVYYCNTRNTYFYAGYDYWGQGTQVTVSS
- polyreactivity (PSR sort gate): low polyreactivity

Sequence: QVQLVESGGGLVQAGGSLRLSCAASGLTFYGNAMGWYRQAPGKETELVADISLSGGRTFYADSVKGRFTISRDNAKNTVYLQMNSLKPEDTAVYYCAKTYTSGYHRRYDYWGQGTQVTVSS
- polyreactivity (PSR sort gate): low polyreactivity

Sequence: QVQLVESGGGLVQAGGSLRLSCAASGLTFYGYGMGWYRPGPGKERELVASITSGGNTYYADSVKGRFTISRDNAKNNVYLQMYSLKPEDNAVSYCAVTAIALYYSSGYYWGQGTQVTVSS
- polyreactivity (PSR sort gate): low polyreactivity

Sequence: QVQLVESGGGLVQAGGSLRLSCAASGLTFYGYTMGWSRQAPGKERELVAAISWSGGNTYYADSVKGRFTISRDNEKNTVYLQMNSLKPEDTAVYYCAAEHWTYDWVDYWGQGTQVTVSS
- polyreactivity (PSR sort gate): low polyreactivity
